Molecular target: T1, SF3B1-3 (pET15b-SF3B1-3, amino acids 955–1304) (UniProt O75533 955-1304)
T1 construct: SF3B1, amino acids 955–1304, HEAT 11–22 domain; methods are in the supplement; also called HEAT 11–22 domain of SF3B1; source: recombinant protein from pET15b-SF3B1-3
Assay: pull-down; cell-free system; recombinant KHSRP-KH4Q and SF3B1-3; inputs and pulled-down proteins detected by Coomassie staining and Western blotting
Conditions: both partners purified

T1 sequence (O75533 955-1304): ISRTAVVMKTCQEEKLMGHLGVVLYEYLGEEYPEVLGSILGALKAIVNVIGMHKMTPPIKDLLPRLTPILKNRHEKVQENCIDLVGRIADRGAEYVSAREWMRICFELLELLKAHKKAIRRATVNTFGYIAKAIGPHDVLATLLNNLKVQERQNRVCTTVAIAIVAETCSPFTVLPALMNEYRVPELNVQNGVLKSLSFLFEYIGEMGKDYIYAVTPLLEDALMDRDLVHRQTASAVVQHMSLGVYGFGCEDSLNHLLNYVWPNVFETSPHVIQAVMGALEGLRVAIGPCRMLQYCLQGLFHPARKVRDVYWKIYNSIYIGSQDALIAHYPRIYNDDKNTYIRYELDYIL

binding result: binds
B1: KHSRP-KH4Q (pET15b-KHSRP-KH4Q, amino acids 435–710) (domain or fragment, UniProt Q92945 435-710, looked up)
chain: KCGLVIGRGGENVKAINQQTGAFVEISRQLPPNGDPNFKLFIIRGSPQQIDHAKQLIEEKIEGPLCPVGPGPGGPGPAGPMGPFNPGPFNQGPPGAPPHAGGPPPHQYPPQGWGNTYPQWQPPAPHDPSKAAAAAADPNAAWAAYYSHYYQQPPGPVPGPAPAPAAPPAQGEPPQPPPTGQSDYTKAWEEYYKKIGQQPQQPGAPPQQDYTKAWEEYYKKQAQVATGGGPGAPPGSQPDYSAAWAEYYRQQAAYYGQTPGPGGPQPPPTQQGQQQA
notes: methods are in the supplement; also called KH4–Q-rich domain of KHSRP; source: recombinant protein from pET15b-KHSRP-KH4Q

Reference: publication PMC11347664, “KHSRP ameliorates acute liver failure by regulating pre-mRNA splicing through its interaction with SF3B1” (Cell Death & Disease, 2024)
